# Test results published in paper doi:10.1101/2023.02.01.526621 (bioRxiv, 2023).
# T1: GST-CESA3CD (catalytic domain of cellulose synthase CESA3 fused to GST) (Arabidopsis thaliana, UniProt Q941L0 305-843)
# T1 sequence (looked up): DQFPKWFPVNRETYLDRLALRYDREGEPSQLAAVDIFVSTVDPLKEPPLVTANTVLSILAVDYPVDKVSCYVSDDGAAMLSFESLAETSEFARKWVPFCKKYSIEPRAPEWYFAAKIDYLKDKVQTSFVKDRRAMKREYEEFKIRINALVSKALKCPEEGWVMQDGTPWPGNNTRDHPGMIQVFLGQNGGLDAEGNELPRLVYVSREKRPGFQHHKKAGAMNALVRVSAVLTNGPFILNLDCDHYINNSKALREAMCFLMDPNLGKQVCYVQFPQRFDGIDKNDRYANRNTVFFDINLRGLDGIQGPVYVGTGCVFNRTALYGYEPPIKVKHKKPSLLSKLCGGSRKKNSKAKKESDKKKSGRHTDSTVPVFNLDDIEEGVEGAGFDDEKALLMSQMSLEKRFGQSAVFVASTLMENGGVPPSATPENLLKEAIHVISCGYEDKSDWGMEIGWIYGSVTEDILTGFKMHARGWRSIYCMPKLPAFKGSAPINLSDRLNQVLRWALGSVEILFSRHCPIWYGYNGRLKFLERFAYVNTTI
# B1: His-tagged full-length CALCIUM-DEPENDENT PROTEIN KINASE32 (His-CPK32) (enzyme, Arabidopsis thaliana, UniProt Q6NLQ6 1-538, looked up)
# chain: MGNCCGTAGSLAQNDNKPKKGRKKQNPFSIDYGLHHGGGDGGGRPLKLIVLNDPTGREIESKYTLGRELGRGEFGVTYLCTDKETDDVFACKSILKKKLRTAVDIEDVRREVEIMRHMPEHPNVVTLKETYEDEHAVHLVMELCEGGELFDRIVARGHYTERAAAAVTKTIMEVVQVCHKHGVMHRDLKPENFLFGNKKETAPLKAIDFGLSVFFKPGERFNEIVGSPYYMAPEVLKRNYGPEVDIWSAGVILYILLCGVPPFWAETEQGVAQAIIRSVLDFRRDPWPKVSENAKDLIRKMLDPDQKRRLTAQQVLDHPWLQNAKTAPNVSLGETVRARLKQFTVMNKLKKRALRVIAEHLSDEEASGIREGFQIMDTSQRGKINIDELKIGLQKLGHAIPQDDLQILMDAGDIDRDGYLDCDEFIAISVHLRKMGNDEHLKKAFAFFDQNNNGYIEIEELREALSDELGTSEEVVDAIIRDVDTDKDGRISYEEFVTMMKTGTDWRKASRQYSRERFNSISLKLMQDASLQVNGDTR
# Biological target: T1, GST-CESA3CD (catalytic domain of …)
# Experiment: pull-down
binder,measurement,value
B1,binding result,binds
